Assay results published in patent publication US20220112558.

Molecular target: 14-3-3 proteins

B1: ARAF mutant (ARAF-S214P), full-length, with two FLAG tags and two STREP tags, expressed in HEK293T cells (protein)
chain: DYKDDDDKDYKDDDDKWSHPQFEKWSHPQFEKMEPPRGPPANGAEPSRAVGTVKVYLPNKQRTVVTVRDGMSVYDSLDKALKVRGLNQDCCVVYRLIKGRKTVTAWDTAIAPLDGEELIVEVLEDVPLTMHNFVRKTFFSLAFCDFCLKFLFHGFRCQTCGYKFHQHCSSKVPTVCVDMSTNRQQFYHSVQDLSGGSRQHEAPSNRPLNELLTPQGPSPRTQHCDPEHFPFPAPANAPLQRIRSTPTPNVHMVSTTAPMDSNLIQLTGQSFSTDAAGSRGGSDGTPRGSPSPASVSSGRKSPHSKSPAEQRERKSLADDKKKVKNLGYRDSGYYWEVPPSEVQLLKRIGTGSFGTVFRGRWHGDVAVKVLKVSQPTAEQAQAFKNEMQVLRKTRHVNILLFMGFMTRPGFAIITQWCEGSSLYHHLHVADTRFDMVQLIDVARQTAQGMDYLHAKNIIHRDLKSNNIFLHEGLTVKIGDFGLATVKTRWSGAQPLEQPSGSVLWMAAEVIRMQDPNPYSFQSDVYAYGVVLYELMTGSLPYSHIGCRDQIIFMVGRGYLSPDLSKISSNCPKAMRRLLSDCLKFQREERPLFPQILATIELLQRSLPKIERSASEPSLHRTQADELPACLLSAARLVP
In the case of B1, the “activation of ERK1/2, as measured by increased phosphorylation” value is reported as “significantly greater activation of ERK1/2, as measured by increased phosphorylation, compared with HEK293T cells expressing wildtype (WT) ARAF”.
